According to patent publication US20250361274A1, “PEPTIDE AND PEPTIDE-CONTAINING AGENT” (PEPTIDREAM INC., priority 2022, published 2025):
Numbered stars: 1 amine (or outer) side, 2 acyl side, 3 side chain; on linkers, the order of the positions; unused ones are H or OH. Square brackets hold non-standard residues; d marks the D form. Ends that are not written are not given here. Bph3OMe = (S)-2-amino-3-(3'-methoxy-[1,1'-biphenyl]-4-yl)propanoic acid, COc1cccc(-c2ccc(C[C@H](N[*:1])C(=O)[*:2])cc2)c1; KCOpipzaa = N6-(4-(carboxymethyl)piperazine-1-carbonyl)-L-lysine, O=C(NCCCC[C@H](N[*:1])C(=O)[*:2])N1CCN(CC(=O)[*:3])CC1; Cha4tH = (S)-2-amino-3-((1r,4S)-4-hydroxycyclohexyl)propanoic acid, O=C([C@H](C[C@H]1CC[C@H](O[*:3])CC1)N[*:1])[*:2]; F4aao = (S)-2-amino-3-(4-(carboxymethoxy)phenyl)propanoic acid, O=C([C@H](Cc1ccc(OCC(=O)[*:3])cc1)N[*:1])[*:2]; 3Pal(6-Ph) = N[C@@H](Cc1ccc(-c2ccccc2)nc1)C(=O)O; Phe(4-COOH) = N[C@@H](Cc1ccc(C(=O)O)cc1)C(=O)O; Bip = N[C@@H](Cc1ccc(-c2ccccc2)cc1)C(=O)O; Abu(4,4,4-F3) = N[C@@H](CC(F)(F)F)C(=O)O; Ala(4-THP) = N[C@@H](CC1CCOCC1)C(=O)O; Gly(4-THP) = N[C@H](C(=O)O)C1CCOCC1; Hyp = O=C(O)[C@@H]1C[C@@H](O)CN1; 4Pal = N[C@@H](Cc1ccncc1)C(=O)O; Gly(cPr) = N[C@H](C(=O)O)C1CC1; βAla = NCCC(=O)O

How the values were obtained:
BMP7 = molecular target: T1, BMP7 (Homo sapiens, UniProt P18075); assay: BMP7 signal transduction inhibitory activity: SMAD1 phosphorylation by BMP7 stimulus, A549 cells; format: cell-based; details: BMP7 10 nM stimulus, class symbols
T1 sequence (P18075 293-431): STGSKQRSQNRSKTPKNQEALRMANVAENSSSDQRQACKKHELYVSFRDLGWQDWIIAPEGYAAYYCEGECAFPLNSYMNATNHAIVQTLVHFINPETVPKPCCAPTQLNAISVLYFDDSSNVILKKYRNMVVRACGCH
Procedure, shortened: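 Inhibition is read as reduced BMP7-driven SMAD1 phosphorylation in human A549 cells, with the BMP7 stimulus at 10 nM. Three-point peptide concentrations spanned 1–1,000 nM depending on the peptide series. Some peptides received eight-point, 1/3-ratio titrations from 100 nM or 1,000 nM, alongside a Noggin control.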

BMP4 = molecular target: T2, BMP4 (Homo sapiens, UniProt P12644); assay: BMP4 signal transduction inhibitory activity: SMAD1 phosphorylation by BMP4 stimulus, AlphaLISA SureFire, A549 cells; format: cell-based; details: BMP4 0.2 nM stimulus; peptide conc. in assay 0.02, 0.2, 2 nM; class symbols
T2 sequence (P12644 293-408): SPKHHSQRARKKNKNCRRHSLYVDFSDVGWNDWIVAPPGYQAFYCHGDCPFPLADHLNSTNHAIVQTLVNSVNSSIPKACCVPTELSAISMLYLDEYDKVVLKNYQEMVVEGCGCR

[1] = peptide conc. in assay 10, 100, 1000 nM
[2] = peptide conc. in assay 100, 300, 1000 nM

Substance	aLIZA BMP7 (10 nM) % inh (BMP7; [1])	aLIZA BMP4 (0.2 nM) % inh (BMP4)	aLIZA BMP7 (10 nM) % inh (BMP7; [2])
266 (QRVYVDR[3Pal(6-Ph)]SYV[Bip][4Pal][Phe(4-COOH)][Phe(4-COOH)]SCG-NH2; not fully specified) [compound 266]	ND (the inhibitory activity was less than 30% at the maximum concentration evaluated)	C (showed less than 30% of inhibitory activity in 0.2 nM-addition zone and showed 30% or more of inhibitory activity in 2 nM-addition zone)	
270 (QRV[F4aao]VDR[3Pal(6-Ph)]SYV[Bip][4Pal][Phe(4-COOH)][Phe(4-COOH)]SCG-NH2; not fully specified) [compound 270]	ND (the inhibitory activity was less than 30% at the maximum concentration evaluated)	C (showed less than 30% of inhibitory activity in 0.2 nM-addition zone and showed 30% or more of inhibitory activity in 2 nM-addition zone)	
271 (ERV[Phe(4-COOH)][Abu(4,4,4-F3)]DR[3Pal(6-Ph)]SYV[Bip][4Pal][Phe(4-COOH)][Phe(4-COOH)]SCG-NH2) [compound 271]	ND (the inhibitory activity was less than 30% at the maximum concentration evaluated)	C (showed less than 30% of inhibitory activity in 0.2 nM-addition zone and showed 30% or more of inhibitory activity in 2 nM-addition zone)	
272 (ERV[Phe(4-COOH)][Gly(cPr)]DR[3Pal(6-Ph)]SYV[Bip][4Pal][Phe(4-COOH)][Phe(4-COOH)]SCG-NH2; not fully specified (N-terminus, bridges)) [compound 272]	ND (the inhibitory activity was less than 30% at the maximum concentration evaluated)	C (showed less than 30% of inhibitory activity in 0.2 nM-addition zone and showed 30% or more of inhibitory activity in 2 nM-addition zone)	
273 (ERV[Phe(4-COOH)]VDR[3Pal(6-Ph)][KCOpipzaa]YV[Bip][4Pal][Phe(4-COOH)][Phe(4-COOH)]SCG-NH2; not fully specified) [compound 273]	ND (the inhibitory activity was less than 30% at the maximum concentration evaluated)	C (showed less than 30% of inhibitory activity in 0.2 nM-addition zone and showed 30% or more of inhibitory activity in 2 nM-addition zone)	
275 (ERV[Phe(4-COOH)]VDR[3Pal(6-Ph)][KCOpipzaa]Y[Hyp][Bip]Y[Phe(4-COOH)][Phe(4-COOH)]SCG-NH2; not fully specified) [compound 275]		B (showed less than 30% of inhibitory activity in 0.02 nM-addition zone and showed 30% or more of inhibitory activity in 0.2 nM-addition zone)	G (showed less than 30% of inhibitory activity in 100 nM-addition zone and showed 30% or more of inhibitory activity in 300 nM-addition zone)
276 (ERV[Phe(4-COOH)]V[KCOpipzaa]R[3Pal(6-Ph)][KCOpipzaa]Y[Hyp][Bip][4Pal][Phe(4-COOH)][Phe(4-COOH)]SCG-NH2; not fully specified) [compound 276]		B (showed less than 30% of inhibitory activity in 0.02 nM-addition zone and showed 30% or more of inhibitory activity in 0.2 nM-addition zone)	ND (the inhibitory activity was less than 30% at the maximum concentration evaluated)
278 (E[KCOpipzaa]V[Phe(4-COOH)]V[KCOpipzaa]R[3Pal(6-Ph)][KCOpipzaa]Y[Hyp][Bip][4Pal][Phe(4-COOH)][Phe(4-COOH)]SCG-NH2; not fully specified) [compound 278]		C (showed less than 30% of inhibitory activity in 0.2 nM-addition zone and showed 30% or more of inhibitory activity in 2 nM-addition zone)	ND (the inhibitory activity was less than 30% at the maximum concentration evaluated)
280 (ERV[Phe(4-COOH)]VDR[3Pal(6-Ph)][KCOpipzaa]Y[Hyp][Bip][4Pal][Phe(4-COOH)][Phe(4-COOH)]SC[βAla]) [compound 280]		B (showed less than 30% of inhibitory activity in 0.02 nM-addition zone and showed 30% or more of inhibitory activity in 0.2 nM-addition zone)	H (showed less than 30% of inhibitory activity in 300 nM-addition zone and showed 30% or more of inhibitory activity in 1,000 nM-addition zone)
281 (ERV[Phe(4-COOH)]VDR[3Pal(6-Ph)][KCOpipzaa]YV[Bip][4Pal][Phe(4-COOH)][Phe(4-COOH)]SC[βAla]) [compound 281]		C (showed less than 30% of inhibitory activity in 0.2 nM-addition zone and showed 30% or more of inhibitory activity in 2 nM-addition zone)	ND (the inhibitory activity was less than 30% at the maximum concentration evaluated)
283 (ERV[Phe(4-COOH)]V[KCOpipzaa]R[3Pal(6-Ph)][KCOpipzaa]Y[Hyp][Bip][4Pal][Phe(4-COOH)][Phe(4-COOH)]SC[βAla]) [compound 283]		B (showed less than 30% of inhibitory activity in 0.02 nM-addition zone and showed 30% or more of inhibitory activity in 0.2 nM-addition zone)	H (showed less than 30% of inhibitory activity in 300 nM-addition zone and showed 30% or more of inhibitory activity in 1,000 nM-addition zone)
284 (ERV[Phe(4-COOH)]V[KCOpipzaa]R[3Pal(6-Ph)][KCOpipzaa]YV[Bip][4Pal][Phe(4-COOH)][Phe(4-COOH)]SC[βAla]) [compound 284]		C (showed less than 30% of inhibitory activity in 0.2 nM-addition zone and showed 30% or more of inhibitory activity in 2 nM-addition zone)	ND (the inhibitory activity was less than 30% at the maximum concentration evaluated)
285 (E[KCOpipzaa]V[Phe(4-COOH)]V[KCOpipzaa]R[3Pal(6-Ph)][KCOpipzaa]Y[Hyp][Bip][4Pal][Phe(4-COOH)][Phe(4-COOH)]SC[βAla]) [compound 285]		C (showed less than 30% of inhibitory activity in 0.2 nM-addition zone and showed 30% or more of inhibitory activity in 2 nM-addition zone)	H (showed less than 30% of inhibitory activity in 300 nM-addition zone and showed 30% or more of inhibitory activity in 1,000 nM-addition zone)
286 (ERV[Phe(4-COOH)]VDR[3Pal(6-Ph)][KCOpipzaa]Y[Hyp][Bip][4Pal][Phe(4-COOH)][Phe(4-COOH)]SC[βAla][dE]-OH; not fully specified (N-terminus, bridges); also: cyclic peptide, ring not given here) [compound 286]		B (showed less than 30% of inhibitory activity in 0.02 nM-addition zone and showed 30% or more of inhibitory activity in 0.2 nM-addition zone)	G (showed less than 30% of inhibitory activity in 100 nM-addition zone and showed 30% or more of inhibitory activity in 300 nM-addition zone)
287 (ERV[Phe(4-COOH)][Ala(4-THP)][KCOpipzaa]R[3Pal(6-Ph)][KCOpipzaa]Y[Hyp][Bip][4Pal][Phe(4-COOH)][Phe(4-COOH)]SCG-NH2; not fully specified (N-terminus, bridges); also: cyclic peptide, ring not given here) [compound 287]		C (showed less than 30% of inhibitory activity in 0.2 nM-addition zone and showed 30% or more of inhibitory activity in 2 nM-addition zone)	H (showed less than 30% of inhibitory activity in 300 nM-addition zone and showed 30% or more of inhibitory activity in 1,000 nM-addition zone)
288 (ERV[Phe(4-COOH)][Cha4tH][KCOpipzaa]R[3Pal(6-Ph)][KCOpipzaa]Y[Hyp][Bip][4Pal][Phe(4-COOH)][Phe(4-COOH)]SCG-NH2; not fully specified (N-terminus, bridges); also: cyclic peptide, ring not given here) [compound 288]		B (showed less than 30% of inhibitory activity in 0.02 nM-addition zone and showed 30% or more of inhibitory activity in 0.2 nM-addition zone)	F (showed 30% or more of inhibitory activity in 100 nM-addition zone)
289 (ERV[Phe(4-COOH)][Gly(4-THP)][KCOpipzaa]R[3Pal(6-Ph)][KCOpipzaa]Y[Hyp][Bip][4Pal][Phe(4-COOH)][Phe(4-COOH)]SCG-NH2; not fully specified (N-terminus, bridges); also: cyclic peptide, ring not given here) [compound 289]		C (showed less than 30% of inhibitory activity in 0.2 nM-addition zone and showed 30% or more of inhibitory activity in 2 nM-addition zone)	ND (the inhibitory activity was less than 30% at the maximum concentration evaluated)
294 (ERV[Phe(4-COOH)][Cha4tH][KCOpipzaa]R[3Pal(6-Ph)][KCOpipzaa]Y[Hyp][Bip]Y[Phe(4-COOH)][Phe(4-COOH)]SCG-NH2; not fully specified) [compound 294]		B (showed less than 30% of inhibitory activity in 0.02 nM-addition zone and showed 30% or more of inhibitory activity in 0.2 nM-addition zone)	F (showed 30% or more of inhibitory activity in 100 nM-addition zone)
296 (ERV[Phe(4-COOH)]V[KCOpipzaa]R[3Pal(6-Ph)][KCOpipzaa]Y[Hyp][Bph3OMe]Y[Phe(4-COOH)][Phe(4-COOH)]SCG-NH2; not fully specified (N-terminus, bridges); also: cyclic peptide, ring not given here) [compound 296]		B (showed less than 30% of inhibitory activity in 0.02 nM-addition zone and showed 30% or more of inhibitory activity in 0.2 nM-addition zone)	ND (the inhibitory activity was less than 30% at the maximum concentration evaluated)
